# Source: the DeepSol protein solubility set
# Assay: soluble on expression in E. coli; label from the status in PepcDB or PDB records
row,Sequence,soluble on expression in E. coli
1,MNHDIPALALGPQGEVMAHAIDACVHCGFCLPACPTYALLGDEMDSPRGRIVLMKEVLEGSLELEDAAPHLDRCLGCQGCVTACPSGVPYGELITSFRGWSEPQRERTPLDRAKRYAILKALPAPKLFSVAARVGQFAKPLAPALPAALKAPLDLLPEHVPAMQPQPRVTPARGQRRGRVAFLAGCAQQALTPNFNAATLRVLSRNGIEVVIPEGQGCCGAAALHTGARDEALRLVRANLAAFNPDEYDAILSNAAGCGAGLKEYPVVLHGLPDEAQAQAFAAKVQDISEYLAGLLRDGELAPLMPTREPVKVAYHDACHLAHAQGVRSAPRELLRAIPGVTLTEIPEGDLCCGSAGTYNLEQPELANQLGQRKAKNILGTQPDLIASGNIGCHTQIQSHVRRQGSPVPVMHTVEVLDLAYRGELLEHHHHHH,not soluble
2,MSLGHELYLVGGSVRDALLGRLSPDLDFTTDARPERVQEIVRPWADAVWDTGIEFGTVGVGKSDHRMEITTFRADSYDRVSRHPEVRFGDCLEGDLVRRDFTTNAMAVRVTATGPGEFLDPLGGLAALRAKVLDTPAAPSGSFGDDPLRMLRAARFVSQLGFAVAPRVRAAIEEMAPQLARISAERVAAELDKLLVGEDPAAGIDLMVQSGMGAVVLPEIGGMRMAIDEGHHHHHH,not soluble
3,EPVVVSAADGEIRTGNDHLCDLLDSDPSDVFGSQIGTFFPGLDDVDLRAHCSQSPGTPLTSSCSAGGTERWVEIAFEPQQWDG,not soluble
4,MLFMVKFRWETEFKETDIGKIPKDWDVKKIKDIGEVAGGSTPSTKIKEYWGGDIPWITPKDLANYEYIYISRGERNITEKAVKECSLRIFPKGTILLTSRAPIGYVAIAKNPLTTNQGFRNIIPKDGVVSEYLYYLFKTKTMSEYLKDISGGSTFPELKGSTLKEVEIPYPSPEEQQKIATVLSYFDDLIENKKKQNEILEKIALELFKNWFIDFEPFKNEEFVYNDELDKEIPKGWEVKRLGDILKVESGSNAPQREIYFENAKIPFVRVKHLVKGVCIESSDFINELALKDYKMKLYNEKSIIFQKSGESLKEARVNIVPFKFTAVNHLAVIDSSMLNEKHYFIYCLLRFLLKEIVYSVKGTTLPYLKISDIENKYIIIPPQPILQKFHSLVQPLFEKIINNQKQIMVLKKIRDALLPKLVFGELRVEEL,soluble
5,MGSDKIHHHHHHMTEQITPQAFLAGRLLLESEVPSEFLTNKDVITEPSIITENGRYHCRRCCNEHRELFATAPCAWCGNRHCIYCRNCLMLGRVTACRKLVRWKGEPYAFPSHSNVLQWKGTLSHGQRHASLQAVQYWKQKEDHIIWAVCGSGKTEIVFDAVAQSLANGERILLATPRVDVVKELYPRFKQAFPSITITALYGDSPSVFHPAQLVIATTHQTFRFKKAFDFVIVDEVDAFPFSCDQSLQLSVNEARRPLAPILYLSATPSRSLLEQNKRITKVSTRYHGHPLPLPSFVWIGNWRKTVMRRKLPSKLVTWLEKHHRKPVFLFVPSIPVLEQVSAALKQLGYIHDAVHAEDPHRHEKVTRFRDGVTKLLVTTTILERGVTVPRVQVAVLGAEHSVFSEAALVQISGRVGRSHRHPTGDIAFFHYGVSKAMKRCRQQLQQMNREGF,not soluble
6,MNASLSSDIAPYIPTLIQQLPIIEEIKTHLPQVLPDYSADEIHATAIASVGMYLADIDYGIRQAIAPEVTPLELRQKLSAYKIELFKRIYNIQFLQPPSTPIGGLELMQQAFKTYKRLLTTLAKAYNLRLPKGILLEHHHHHH,not soluble
7,QPAHSLWLDLTQGEEALLKGMKEMHRRNARLALKRVALSVEGEEAFAEFYRLFTETNRRARLLQHDEAYYRAVLKEMNQPLGEAFLALARKDGEALAAGLFVAFAGKVAYLYGGSTRKHPEAKAPMGMHLAAIRHGMARGYRVYDLWGIPKNPRGSHAEGIHRFKEGFGGQRVQFPA,not soluble
8,MTTVQTSVYEPLTEPKAVSLAVRLGLFRDGAPLACREIGDGNLNLVFHIVDQETKQGVIIKQALPYAKVVGESWPLTLKRAVIESNALRTFASYVPQYVPKVYYSDESLAITVMEDLSRLQIARKGLIEGKTYPLLSQHIGEFVAKTAFYTSDFGMNQQEKKKLAQSFVNPELCKITEDLVFTDPFFDHETNNFEDELRPDVEALWRDDRLHLEAAKLKRKFLTEADVLLHGDLHTGSIFVSADETKVIDPEFAFYGPIGFDLGQFFANLLLNALSRSELERQPLFDHIDRTWDVFASVFSNLWCTESVETYAATPGLLEDVLRHAFIDAVGFAGCEVIRRTIGLAHVADLDGIEHKDERLVAKRHALRLGRRLIIERRVFTGTEDFRRLFAETEQ,not soluble
9,KFGGINETYLPPNNTVRTAQASFDENFPHFRTEPIKLVITGATNQQLVDVYQQANKVEGLTDRFKPSSATKDGTTVLSAGIENREDNAKVVEQLRAIDAPEGVSVYIGGIPAMEVESIEALFDKLP,not soluble
10,MEATNKMKVEVWSDIMCPFCYIGKRNYEAGLKQFADSNNIEIIWKSFQLDPNIPQDTAVTENVYQYLAERKGMSYEQSVQMHDSVVATAKKAGLDYNFDKAVIANSFNAHRMIQLAKTKDLGDAAEERLFYAYFTEGKNVGNSYVLIELGKDIGLTEAEVQTALTDDTYAYKVRQDVEEAQHLGVRGVPFFVFDRKYAVSGAQPPQAFLETLEKSFSEWRKEHPASPFEVSEGPSCSVDGCD,not soluble
11,MGSDKIHHHHHHAERISFFYPPFGEFSLSVDSLETFAKVGKIDRDFSFYASRATPQQLAQLRDLLQQRFNLTPTLVSQVTYSPIGEQLVQQLGKLLLTESRQNGFYAIRASLILAAADREGLTVVNLLRKFPSNTVRVNFTEGLRIVDDLSQLLKKKDEVVASLQKEAIAQAANSTVDFSKQPDLRSPGKFRWLKKSLELNDISRSRRLPVDIYLPTTQNSEPTDQNSPSPPFPLIVISHGLASDRSTFVYLAEHLASYGFAVAVLEHPGSNAKRFQEYFAGLASPPEPEEFIDRPLDIKYLLDELQRLEKSDPSLHGKLNFQQVGAIGQSFGGYTVLTLAGAKINFEQLRQDCNPNNSSFNLSLLLQCEASKLPQKNYELKDDRIKAIMAINPIDSLVLGEGGVSQIKMPVMLVAGSQDIFAPPVFEQIRPFTWLSDPNKYLALIENATHFSAIAEPTPENDVLPVPPALLGPDRDAVYSYLNALSVAFMETHLLNRPEYRSYLQPSYATFISKEPLNLSILQSLSVAQFNQIWSASIPQSAKLSNPQPTPR,not soluble
12,MPDMANVESFDLDHTKVKAPYVRLAGVKTTPKGDQISKYDLRFLQPNQGAIDPAAIHTLEHLLAGYMRDHLEGVVDVSPMGCRTGMYMAVIGEPDEQGVMKAFEAALKDTAGHDQPIPGVSELECGNYRDHDLAAARQHARDVLDQGLKVQETILLERGSHHHHHH,soluble
13,MSLIQQQPIKPLANSQVCCSDFSQYPWIQLATTEDINFQLDKDSPIGHFSDGNSYFNAFKFAERSGKVQLRLSSLMINDSVAAPKLIALDHEFNVVSTTSLDQFDVKPSDAFTRTQFQLNFQLNAAKTPYFIIYSSNEYLGQSIKVKHPARIRAEELGEPMPMVTDPTYAYERFGKLKLSIKTLSLQADKQADQQPKVAIKSAQPETHTFYKEAIVEAVKTNDIPKALALLEEAKSLGIQDAQDTFVQALESQKEGHHHHHH,soluble
14,AEEYGYIVTDQKPLSLAAGVKLLEILAEHVHMSSGSFINISVVGPALTFRIRHNEQNLSLADVTQQAGLVKSELEAQTGLQILQTGVGQRE,soluble
15,MHILVTGFAPFDNQNINPSWEAVTQLEDIIGTHTIDKLKLPTSFKKVDNIINKTLASNHYDVVLAIGQAGGRNAITPERVAINIDDARIPDNDDFQPIDQAIHLDGAPAYFSNLPVKAMTQSIINQGLPGALSNSAGTFVCNHTLYHLGYLQDKHYPHLRFGFIHVPYIPEQVIGKPDTPSMPLEKIVAGLTAAIEAISNDEDLHLALGTTE,not soluble
16,MAHHHHHHMHDRIFAFAQQKVGLTAEQAECLSRKYWLNYGLSLYGYVKEYNVDAKEYSDFVHQCSYDKLHYNKPLIDMLLIMQYAPEAARGHDGPRSTNIDHLYYFTNANHSHARNVLDAQGLRPIFTRPRPVGLPVKENHPASEQAGAEDQVEWLGFSYEDQWQLTHPEIANKPMRQAYEAIYKAIEDQVAEDAALVATTTTAGSGSAFASSSASRNSDIAEEVKNKRARLRPENFVMVDDSLMNIDAPLELGWSAVWYAHDTQELPTDVKDNASAPLYAAAVASGRLQVIRNILELRAAVERIREVNSRSASS,not soluble
17,MATSLQAAATFLQPAKIAASPSRNVHLRSNQTVGKSFGLDSSQARLTCSLHSDLKDFAGKCSDAAKIAGFALATSALVVSGAGAEGAPKRLTYDEIQSKTYMEVKGTGTANQCPTIDGGSETFSFKAGKYTGKKFCFEPTSFTVKADSVSKNAPPDFQNTKLMTRLTYTLDEIEGPFEVGSDGSVKFKEEDGIDYAAVTVQLPGGERVPFLFTVKQLEASGKPESFSGKFLVPSYRGSSFLDPKGRGGSTGYDNAVALPAGGRGDEEELSKENVKNTAASVGEITLKITKSKPETGEVIGVFESLQPSDTDLGAKVPKDVKIQGVWYGQIE,soluble
18,MAKIVILFDFDRTLIDGDSDNWVVTEMGLTEIFHQLRFTLPWNRLMDRMMMELQSQGRSIDDIKSCLKKMPIDSHIIEAIKSAKSSGCDLKIVSDANQFFIEKILEHHDLVDCFSEIYTNPTSLDDNGNLRILPYHSDALPPHSCNLCPSNLCKGLVMDHLRASSSNDQIPRRFIYLGDGGGDFCPTLKLRECDFVMPRTNYPLWKKISDNPLLIKAEVKEWSSAEEQQRILLQLVSTITKEEDS,soluble
19,MSLQISPETQLFIREHQTDDVRALALQARKYPNVDMPTAITQIAGRQVAAEKIPSWRDTDDIWYPKHLSLEQCSSEVTARYKATLLKGNSLTDLTGGFGIDCAFLAARFKSATYVERQQELCEIAAHNFPILNLNHINVKNEDGVSYLQAMSPVDCIFLDPARRNEHGGKTVAISDCEPDVAELEELLLNKAEQVMVKLSPMLDLSLALKELQHVQEVHIISANNECKELLLILGQASAEEISIHCVNLPTRGAQEEQHFVFTREQEQCSECNYTDTLENYLYEPNASLLKAGAFRSIASAFPVKKLHPNSHLYTSDVLVESFPGRAFHIISQCSLNKKELKESLGDLKKANITVRNFPATVAELRKRIKLSEGGDTYLFASTLNNGQKVLIRCEKAEGHHHHHH,soluble
20,MAHHHHHHMGRSFKVFLSNYVYRYGAAVWELRVCIERCAFPDYYAASPHDCAASSHYHAAYPPRSCSECGNHLSDPTELVSTSFRGRTGPAWLFSKVINVCEGQYEDRMMTTGQHTIVDIYCNNCRNNVGWKYEDSSEESQKYKKGKYILEKALLSFLVIDQHGKEHEFELKSSDCDF,not soluble
21,SATFVSELEAAKKNLSEALGDNVKQYWANLKLWFKQKISKEEFDLEAHRLLTQDNVHSHNDFLLAILTRCQILVSTPDGAGSLPWPGGSAAKPGKPKGKKKLSSVRQKFDHRFQPQNPLSGAQQFVAKDPQDDDDLKLCSHTMMLPTRGQLEGRMIVTAYEHGLDNVTEEAVSAVVYAVENHLKDILTSVVSRRKAYRLRDGHFKYAFGSNVTPQPYLKNSVVAYNNLIESPPAFTAPCAGQNPASHPPPDDAEQQAALLLACSGDTLPASLPPVNMYDLFEALQVHREVIPTHTVYALNIERIITKLWHPNHEELQQDKVHRQRLAAKEGLLLC,soluble
